Legend:
Cx43 [1] = biological target: T1, Cx43 (Homo sapiens, UniProt P17302); assay: Octanol-induced uncoupling, dual-cell patch clamp, junctional conductance (Gj) in Cx43-expressing N2A cell pairs; assay type: cell-based, mouse; conditions: for cells remaining coupled ten minutes after the onset of octanol superfusion: peptide 100 μM in pipette, 1.5 mM octanol, 10 min; for effect on octanol-induced decrease of Gj compared to control (in words): 1.5 mM octanol perfusion
T1 construct: expressed in transfected cells; host or cells: N2a (mouse neuroblastoma) cells, transiently transfected
T1 sequence (P17302 2-382 limits assumed): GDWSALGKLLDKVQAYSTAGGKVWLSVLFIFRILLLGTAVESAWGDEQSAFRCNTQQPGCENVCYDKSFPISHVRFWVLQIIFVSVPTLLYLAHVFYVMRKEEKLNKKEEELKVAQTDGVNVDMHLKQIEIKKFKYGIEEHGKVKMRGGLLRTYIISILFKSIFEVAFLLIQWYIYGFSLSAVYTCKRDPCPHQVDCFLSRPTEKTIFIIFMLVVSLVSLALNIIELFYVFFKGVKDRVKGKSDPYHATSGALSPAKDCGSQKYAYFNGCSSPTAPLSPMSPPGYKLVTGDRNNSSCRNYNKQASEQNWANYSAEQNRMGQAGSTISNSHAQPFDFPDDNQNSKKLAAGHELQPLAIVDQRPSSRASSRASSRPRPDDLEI
Experimental: FIG. 2. Time course of octanol-induced uncoupling in human Cx43-expressing N2A cells. Cell pairs were recorded with patch pipettes that contained either ZP2778 (0.1 mM; upper curve/trace), or only the internal pipette filling solution (control; lower curve/trace). Experiments were conducted using the dual-cell patch clamp technique, and 1.5 mM octanol perfusion was started at Time=0.
(§1) Patch clamp experiments were conducted in N2a cells transiently transfected with Cx43. In all cases, the dual-whole-cell voltage clamp technique was used to record gap junction currents. Specifics for cell culture, transfection and recordings are described in Shibayama et al. (Identification of a novel peptide that interferes with the chemical regulation of connexin 43. Circ Res 2006 98:1365-72). Octanol superfusion was initiated 5 minutes after patch break and continued for 10 minutes. Concentration of octanol was 1.5 mM in all experiments. Peptides were diluted in the internal pipette solution to a final concentration of 100 μM. A total of 20 experiments were carried out where octanol-induced uncoupling was tested in the absence of peptides. These experiments were averaged, and data used as control for comparison with those series where a given peptide was assessed. Patch clamp experiments were also conducted (cf. FIG. 6 herein) using ventricular myocytes from neonatal Sprague-Dawley rats (rats supplied by Charles River, Mass. USA), isolated and cultured according to Rohr et al. (see Circ. Res. 1991; 68: 114-130, and J. Cardiovasc. Electrophysiol. 1995; 6: 551-568).
Junctional conductance (Gj) was measured in N2a cell pairs expressing Cx43. Patch pipettes were filled with an internal solution containing the specific peptide under study, and the time course and extent of octanol-induced uncoupling was compared to that observed in the absence of the peptide. FIGS. 2-5 show average measurements of junctional conductance and percent of coupled cells recorded at various times after the onset of octanol superfusion for the cyclized peptides ZP2769, ZP2771, ZP2778, ZP2782 and for the dissolution medium (internal pipette solution) used as control. […] For ZP2778 (FIG. 2), 60% of the cells remained coupled, while 20% remained coupled for ZP2782 (FIG. 4).

recombinant rat Cx43CT = recombinant rat Cx43CT (Rattus norvegicus, UniProt P08050); assay: Surface plasmon resonance (SPR) binding of peptides to immobilised Cx43CT; conditions: for binding to the Cx43CT (in words): SPR, FIG. 1 / Table 2; for (ru * 100)/Mw: response normalised to molecular weight
Sequence of recombinant rat Cx43CT (P08050 229-382 limits assumed): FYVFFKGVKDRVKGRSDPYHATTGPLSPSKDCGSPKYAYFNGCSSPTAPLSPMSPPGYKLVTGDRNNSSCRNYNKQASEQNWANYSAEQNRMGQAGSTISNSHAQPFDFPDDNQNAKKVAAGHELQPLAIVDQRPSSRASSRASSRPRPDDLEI
Excerpt: FIG. 1. SPR results for compounds (peptides) ZP2769 and ZP2771. Recombinant rat Cx43CT was covalently bound to a carboxylmethyl dextran matrix and used as ligand. Peptides were presented to the bound ligand, and the amplitude of the response was subtracted from that obtained from a control chamber with no ligand. If no change in angle of resonance was observed, this was taken as an indication of absence of binding. The amplitude of the change in angle of resonance (expressed as “response units”) is a function of the molecular mass of the analyte, and for comparison purposes response units were therefore normalized taking into account the molecular weight of the tested compound. Change in angle of incidence of resonance (in “resonance units”) was plotted against time after onset of cyclic peptide exposure. The various curves correspond to different applied concentrations of the peptide in question, as follows:
Compounds of the present invention may be tested for binding to the carboxyl terminal domain of Cx43 using Surface Plasmon Resonance (“SPR”). SPR is a technique that was used to identify the original RXPE sequence (Shibayama et al., “Identification of a Novel Peptide that Interferes with the Chemical Regulation of Connexin-43,” Circ. Res. 98:1365-72 (2006)). The concentration of the compound relative to the amplitude of the response in arbitrary units is measured.
Recombinant Cx43CT is covalently bound to a carboxylmethyl dextran matrix (Salemon et al., “Surface Plasmon Resonance Spectroscopy as a Tool for Investigating the Biochemical and Biophysical Properties of Membrane Protein Systems. II: Applications to Biological Systems,” Biochim. Biophys. Acta 1331(2):131-152 (1997)). Specific peptide compounds are presented and, when feasible, dissociation constants (KD) are calculated from the time course of binding and unbinding of the ligand, using a 1:1 (Langmuir) association and dissociation kinetic model (Biacore software package). In both phases (association and dissociation), the first 5-8 seconds of recording are not included in the fit, to avoid artifacts resulting from peptide distribution within the flow cells (Lang et al., “Surface Plasmon Resonance as a Method to Study the Kinetics and Amplitude of Protein-protein Binding,” in Practical Methods in Cardiovascular Research 936-947 (Stefan Dhein, Friedrich Wilhelm Mohr & Mario Delmar eds., 2005). In the present experiments recombinant rat Cx43CT was covalently bound to a carboxylmethyl-dextran matrix and used as ligand.
Examples of the cyclic peptide compounds of the present invention were presented to the bound ligand, and the amplitude of the response was subtracted from that obtained from a control chamber with no ligand. No change in angle of resonance was taken as an indication of absence of binding. The amplitude of the change in angle of resonance (expressed as “response units”) is a function of the molecular mass of the analyte and for comparison purposes response units were normalized taking account of the molecular weight of the tested compound. Change in angle of incidence of resonance (in “resonance units”) was plotted against time after onset of cyclic peptide exposure.
SPR allows for assessment of ligand-analyte binding in real time, and was used for characterization of two of the cyclic peptide compounds of the present invention. Cx43CT was covalently bound to the matrix of a sensor chip. […] In FIG. 1, the change in angle of incidence of resonance (in “resonance units”) is plotted against time after onset of cyclic peptide exposure. Different concentrations were applied, as indicated.

[2] = test system: neonatal rat ventricular cardiac myocytes; assay: Acidification-induced uncoupling (pH 6.2), dual-cell patch clamp in neonatal rat ventricular cardiac myocytes; assay type: cell-based; conditions: peptide 0.1 mM buffered to pH 6.2
Experimental: Lower graph: Time course of acidification-induced uncoupling in neonatal rat ventricular cardiac myocytes. Cell pairs were recorded with patch pipettes that contained (i) ZP2771 (0.1 mM, buffered to pH 6.2; uppermost curve; filled square symbols), (ii) linear peptide RRPPYR (0.1 mM buffered to pH 6.2; middle curve; filled triangle symbols), or (iii) only the internal pipette filling solution buffered to pH 6.2 (lowermost curve; filled circle symbols). Experiments were conducted using the dual-cell patch clamp technique.
as §1

Cx43 [3] = biological target: T1, Cx43; assay: Acidification-induced uncoupling (pH 6.2), dual-cell patch clamp in Cx43-expressing N2A cell pairs; conditions: peptide 0.1 mM in patch pipette, N2A cells
Experimental: FIG. 6. Upper graph: Time course of acidification-induced uncoupling in human Cx43-expressing N2A cells. Cell pairs were recorded with patch pipettes that contained either ZP2771 (0.1 mM; upper curve), or only the internal pipette filling solution buffered to pH 6.2 (control; lower curve). Experiments were conducted using the dual-cell patch clamp technique.
as §1, with “Patch clamp experiments were also conducted (cf. FIG. 6 herein) using ventricular myocytes from neonatal Sprague-Dawley rats (rats supplied by Charles River, Mass. USA), isolated and cultured according to Rohr et al. (see Circ. Res. 1991; 68: 114-130, and J. Cardiovasc. Electrophysiol. 1995; 6: 551-568).” left out

[4] = peptide 0.1 mM in patch pipette

Row | Substance | cells remaining coupled ten minutes after the onset of octanol superfusion (Cx43 [1]) | effect on octanol-induced decrease of Gj compared to control (in words) (Cx43 [1]; [4]) | binding to the Cx43CT (in words) (recombinant rat Cx43CT) | Resonance Units (ru) (recombinant rat Cx43CT; peptide conc 0.063 mM) | (ru * 100)/Mw (recombinant rat Cx43CT; peptide conc 0.063 mM) | Resonance Units (ru) (recombinant rat Cx43CT; peptide conc 0.125 mM) | (ru * 100)/Mw (recombinant rat Cx43CT; peptide conc 0.125 mM) | Resonance Units (ru) (recombinant rat Cx43CT; peptide conc 0.250 mM) | (ru * 100)/Mw (recombinant rat Cx43CT; peptide conc 0.250 mM) | Resonance Units (ru) (recombinant rat Cx43CT; peptide conc 0.500 mM) | (ru * 100)/Mw (recombinant rat Cx43CT; peptide conc 0.500 mM) | Resonance Units (ru) (recombinant rat Cx43CT; peptide conc 1.000 mM) | (ru * 100)/Mw (recombinant rat Cx43CT; peptide conc 1.000 mM) | Gj fifteen minutes after patch break [2] | further results
1 | Cyclo(RRPPYRQ) (cyclic) [ZP2771] | all cells remained coupled | significantly (p<0.05) prevented the decrease of Gj | significant binding | 192.4 | 20.18 | 323.6 | 33.94 | 574.0 | 60.20 | 896.0 | 93.97 | 1253.0 | 131.41 | approximately 0.47 | Gj at the end of the experiment (Cx43 [1]; peptide 0.1 mM in patch pipette, after 10 minutes of 1.5 mM octanol perfusion): approximately 0.65; Resonance Units (ru) (recombinant rat Cx43CT; peptide conc 0.008 mM): 27.6 ru; (ru * 100)/Mw (recombinant rat Cx43CT; peptide conc 0.008 mM): 2.89; Resonance Units (ru) (recombinant rat Cx43CT; peptide conc 0.016 mM): 58.1 ru; (ru * 100)/Mw (recombinant rat Cx43CT; peptide conc 0.016 mM): 6.09; Resonance Units (ru) (recombinant rat Cx43CT; peptide conc 0.031 mM): 95.8 ru; (ru * 100)/Mw (recombinant rat Cx43CT; peptide conc 0.031 mM): 10.05; effect on acidification-induced decrease of Gj compared to linear peptide and control (in words) [2]: significantly (p=0.006) prevented the decrease of Gj; Gj fifteen minutes (900 sec) after patch break (Cx43 [3]): approximately 0.49; effect on acidification-induced decrease of Gj compared to control (in words) (Cx43 [3]): significantly (p=0.002) prevented the decrease of Gj
2 | RRPPYR [reference compound] |  |  |  |  |  |  |  |  |  |  |  |  |  | approximately 0.17 | 
3 | cyclo(RRPPWN) [ZP2782] | 20% | reduction in the decrease of Gj |  |  |  |  |  |  |  |  |  |  |  |  | 
4 | cyclo(RRPPYN) [ZP2778] | 60% | significantly (p<0.05) prevented the decrease of Gj |  |  |  |  |  |  |  |  |  |  |  |  | 
5 | cyclo(RRPPYQ) [ZP2769] | all cells remained coupled | marked reduction in the decrease of Gj | significant binding | 18.6 | 2.33 | 29.6 | 3.71 | 55.8 | 6.99 | 101.9 | 12.77 | 196.2 | 24.59 |  | 
